Measurements from article PMC8420576 (The EMBO Journal, 2021).

Target: T1, SARS-CoV-2 Spike RBD (residues 334–527), C-terminal Avi-His6 tag, biotinylated (SARS-CoV-2, reference (Wuhan-Hu-1) …, UniProt P0DTC2, biotin on the Avi-tag)
T1 construct: also called biotinylated RBD; SARS‐CoV‐2 RBD‐loaded sensors
Test: BLI
Details: both partners purified

B1: VHH antibody Re9F06 (VHH)
VHH: QVQLVESGGGLVQAGGSLRLSCAASGRTFSNDALGWFRQAPRKEREFVAAINWNSGTYYADSVKGRFTISRDNAKNTVYLQMNSLKPEDTAVYSCAAASDYGLPREDFLYDYWGQGTQVTVSS
notes: also called fold-promoter Re9F06; fold-promoting nanobody Re9F06
  Kd: 4 nM
